{
  "source": "paper PMC4646777",
  "about": "(Science Advances, 2015)",
  "molecules": {"B1": {"name": "OsTPL TOPLESS domain (TPD), TPL(1–209), tag removed (domain or fragment, rice, UniProt Q0J7U6 1-209, looked up)", "chain": "MSSLSRELVFLILQFLDEEKFKETVHKLEQESAFYFNMKHFEDLVQGGEWDEVEKYLSGFTKVEDNRYSMKIFFEIRKQKYLEALDRHDRAKAVEILVKDLKVFASFNEELFKEITQLLTLENFRQNEQLSKYGDTKSARNIMLMELKKLIEANPLFRDKLNFPPFKVSRLRTLINQSLNWQHQLCKNPRPNPDIKTLFTDHSCAAPTN"}, "B2": {"name": "OsTPR1 TOPLESS domain (TPD), TPR1(1–209), tag removed (domain or fragment, rice, UniProt Q10NY2 1-209, looked up)", "chain": "MSSLSRELVFLILQFLDEEKFKETVHKLEQESGFYFNMKYFEDEVINGNWDEVERYLGGFTKVDDNRYSMKIFFEIRKQKYLEALDKHDRSKAVEILVKDLKVFASFNEELFKEITQLLTLENFRENEQLSKYGDTKSARAIMLVELKKLIEANPLFRDKLQFPNLKSSRLRTLINQSLNWQHQLCKNPRPNPDIKTLFVDHSCGQPNG"}, "B3": {"name": "Arabidopsis TPR2 TOPLESS domain (TPD), TPR2(1–209), tag removed (domain or fragment, UniProt Q9LRZ0 1-209, looked up)", "chain": "MSSLSRELVFLILQFLDEEKFKESVHKLEQESGFFFNIKYFEEKALAGEWDEVEKYLSGFTKVDDNRYSMKIFFEIRKQKYLEALDRNDRAKAVEILAKDLKVFATFNEELYKEITQLLTLENFRENEQLSKYGDTKSARSIMYTELKKLIEANPLFREKLAFPSFKASRLRTLINQSLNWQHQLCKNPRPNPDIKTLFLDHSCSPSNG"}, "B4": {"name": "Arabidopsis TPL TOPLESS domain (TPD), TPL(1–209), tag removed (domain or fragment, UniProt Q94AI7 1-209, looked up)", "chain": "MSSLSRELVFLILQFLDEEKFKETVHKLEQESGFFFNMKYFEDEVHNGNWDEVEKYLSGFTKVDDNRYSMKIFFEIRKQKYLEALDKHDRPKAVDILVKDLKVFSTFNEELFKEITQLLTLENFRENEQLSKYGDTKSARAIMLVELKKLIEANPLFRDKLQFPTLRNSRLRTLINQSLNWQHQLCKNPRPNPDIKTLFVDHSCGPPNG"}, "B5": {"name": "Arabidopsis TPR1 TOPLESS domain (TPD), TPR1(1–209), tag removed (domain or fragment, UniProt Q0WV90 1-209, looked up)", "chain": "B4 chain with K87R, N168T, G205R, P206L, G209D"}, "B6": {"name": "VP16-OsTPR2 full length (natural protein, rice, UniProt Q5NBT9 1-1129, looked up)", "chain": "MSSLSRELVFLILQFLDEEKFKETVHKLEQESGFFFNMKYFEEKVHAGEWDEVEKYLSGFTKVDDNRYSMKIFFEIRKQKYLEALDRHDRAKAVDILVKDLKVFSTFNEELYKEITQLLTLENFRENEQLSKYGDTKSARSIMLIELKKLIEANPLFREKLVFPTLKASRLRTLINQSLNWQHQLCKNPRPNPDIKTLFTDHTCTPPNGARASPVSVPLAAVPKAGGTYPPLTAHTPFQPPPAGPSLAGWMANAAAATSSVPSAVVAASSLPVPPNQAVPIMKRPTITDYQSAESEQLMKRLRPSGHGVDEATYPAPIPQPLWSVEDLPRTVACTLSQGSSVTSMDFHPTRHTLLLVGSTNGEITLWEVGMRERLFSKPFKIWDIQACSPQFQSVAKESSISINRVTWSPDGDLIGVAFAKHLIHLHAYQQPNETRQVLEIDAHSGAVNDIAFSRPNKQLCVVTCGDDRLIKVWDMHGQKLFSFEGHEAPVYSICPHHKESIQFIFSTSLDGKIKAWLYDHMGSRVDYDAPGKWCTTMLYSADGTRLFSCGTSKDGDSYLVEWNESEGSIKRTYSGFRKKSAGVGVVQFDTAQNHILAAGEDNQIKFWDVDNTTMLSSTEADGGLPGLPRLRFNKEGNLLAVTTVDNGFKILANADGLRTLRAFGNRPFEAFRSQYEASSMKVSGAPVVAGISPNIGRMDHIDRNSPAKPSPIMNGGDPASRSIDIKPRISEERPDKAKPWELMEVLNAQQCRVATMPETPDQASKVVRLLYTNSGVGLLALGSNAIQRLWKWARNDQNPSGKATANVVPQHWQPNSGLVMQNDTADTNPEDAVPCIALSKNDSYVMSACGGKVSLFNMMTFKVMTTFMPPPPASTFLAFHPQDNNIIAIGMEDSTIHIYNVRVDEVKTRLKGHQRRITGLAFSNNLQILVSSGADAQLCVWATDTWEKKKSVAIQMPAGKTPSGDTWVQFNSDWSRLLVVHETQLAIYDASKMERIYQWIPQDALSAPISHASYSRNSQLVFAAFTDGNIGIFDVENLRLRCRIAPPAYLSSAAINSNPSVYPLVVAAHPQESNQFAVGLSDGSVKVIEPLESEGKWGTTPPTENGVPNGRTSTSSATSNPAADQIQR"}, "B7": {"name": "Arabidopsis TPR4 TOPLESS domain (TPD), TPR4(1–209), tag removed (domain or fragment, UniProt Q27GK7 1-209, looked up)", "chain": "MSSLSRELVFLILQFLDEEKFKDTVHRLEKESGFFFNMRYFEDSVTAGEWDDVEKYLSGFTKVDDNRYSMKIFFEIRKQKYLEALDKKDHAKAVDILVKELKVFSTFNEELFKEITMLLTLTNFRENEQLSKYGDTKSARGIMLGELKKLIEANPLFRDKLQFPSLKNSRLRTLINQSLNWQHQLCKNPRPNPDIKTLFVDHTCGHPNG"}, "B8": {"name": "Arabidopsis TPR3 TOPLESS domain (TPD), TPR3(1–209), tag removed (domain or fragment, UniProt Q84JM4 1-209, looked up)", "chain": "MSSLSRELVFLILQFLEEEKFKESVHRLEKESGFFFNTKYFDEKVLAGEWDDVETYLSGFTKVDDNRYSMKIFFEIRKQKYLEALDRQEKAKAVEILVQDLRVFSTFNEELYKEITQLLTLQNFRENEQLSKYGDTKTARGIMLGELKKLIEANPLFRDKLMFPTLRSSRLRTLINQSLNWQHQLCKNPRPNPDIKTLFTDHTCTLPNG"}, "B9": {"name": "OsTPR2 TOPLESS domain (TPD), TPR2(1–210), tag removed (domain or fragment, rice, UniProt Q5NBT9 1-210, looked up)", "chain": "MSSLSRELVFLILQFLDEEKFKETVHKLEQESGFFFNMKYFEEKVHAGEWDEVEKYLSGFTKVDDNRYSMKIFFEIRKQKYLEALDRHDRAKAVDILVKDLKVFSTFNEELYKEITQLLTLENFRENEQLSKYGDTKSARSIMLIELKKLIEANPLFREKLVFPTLKASRLRTLINQSLNWQHQLCKNPRPNPDIKTLFTDHTCTPPNGA"}},
  "key": {"[1]": {"target": "TraM-NINJA EAR fusion protein (tetrameric), untagged (not stated | Arabidopsis)", "assay": "SEC"}, "[2]": {"target": "H6-tagged OsTPR2 N-terminal domain (TPD), TPR2(1–210) (rice) (UniProt Q5NBT9)", "assay": "AlphaScreen or HTRF"}, "SEC": {"target": "the molecule itself", "assay": "SEC"}, "[3]": {"target": "T1, H6-tagged OsTPR2 N-terminal domain (TPD), TPR2(1–210) (rice, UniProt Q5NBT9 1-210)", "T1 sequence (looked up)": "B9 chain", "assay": "AlphaScreen or HTRF"}, "[4]": {"target": "T2, Gal4 DBD-NINJA full length (Arabidopsis, UniProt Q9SV55 1-425)", "T2 sequence (looked up)": "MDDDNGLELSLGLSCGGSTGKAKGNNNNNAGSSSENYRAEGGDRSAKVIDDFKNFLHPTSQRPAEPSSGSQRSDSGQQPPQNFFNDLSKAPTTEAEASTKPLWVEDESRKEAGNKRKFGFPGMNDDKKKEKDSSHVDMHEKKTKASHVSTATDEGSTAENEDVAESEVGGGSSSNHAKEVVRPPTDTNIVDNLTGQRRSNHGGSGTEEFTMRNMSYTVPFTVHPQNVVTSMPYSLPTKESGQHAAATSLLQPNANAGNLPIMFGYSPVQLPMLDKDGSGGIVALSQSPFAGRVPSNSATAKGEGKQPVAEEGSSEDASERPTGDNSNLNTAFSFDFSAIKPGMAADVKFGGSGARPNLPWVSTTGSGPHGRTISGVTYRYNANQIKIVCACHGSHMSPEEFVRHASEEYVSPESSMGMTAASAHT", "assay": "two-hybrid"}, "crystal structure": {"target": "the molecule itself", "assay": "crystal structure"}},
  "note": "Where a chain is given by its changes, count along the chain named.",
  "data": [
    {"molecule": "TraM-NINJA EAR fusion protein (tetrameric), untagged", "values": [
      {"measurement": "stoichiometry N", "setting": "[1]", "value": 4},
      {"measurement": "IC50", "setting": "[2]", "value": 0.16, "unit": "µM"}
    ]},
    {"molecule": "B1", "values": [
      {"measurement": "stoichiometry N", "setting": "SEC", "value": 4}
    ]},
    {"molecule": "B2", "values": [
      {"measurement": "stoichiometry N", "setting": "SEC", "value": 4}
    ]},
    {"molecule": "B3", "values": [
      {"measurement": "stoichiometry N", "setting": "SEC", "value": 4}
    ]},
    {"molecule": "B4", "values": [
      {"measurement": "stoichiometry N", "setting": "SEC", "value": 4}
    ]},
    {"molecule": "B5", "values": [
      {"measurement": "stoichiometry N", "setting": "SEC", "value": 4}
    ]},
    {"molecule": "DNGLELSLGLSC", "note": "[monomeric NINJA EAR motif peptide (12 amino acids, untagged)]", "values": [
      {"measurement": "IC50", "setting": "[3]", "value": 38, "unit": "µM"}
    ]},
    {"molecule": "B6", "values": [
      {"measurement": "luciferase reporter activation above background", "setting": "[4]", "value": "~2", "unit": "fold"}
    ]},
    {"molecule": "B7", "values": [
      {"measurement": "stoichiometry N", "setting": "SEC", "value": 4}
    ]},
    {"molecule": "B8", "values": [
      {"measurement": "stoichiometry N", "setting": "SEC", "value": 4}
    ]},
    {"molecule": "B9", "values": [
      {"measurement": "stoichiometry N", "setting": "crystal structure", "value": 4}
    ]}
  ]
}
